T1: SYNJ2BP, P57105
T1 sequence (P57105 8-110, limits assumed, looked up): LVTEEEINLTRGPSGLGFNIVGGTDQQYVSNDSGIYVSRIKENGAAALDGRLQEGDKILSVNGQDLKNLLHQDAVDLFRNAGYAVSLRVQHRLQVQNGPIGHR

T2: TJP3_3, O95049
T2 sequence (O95049 375-456, limits assumed, looked up): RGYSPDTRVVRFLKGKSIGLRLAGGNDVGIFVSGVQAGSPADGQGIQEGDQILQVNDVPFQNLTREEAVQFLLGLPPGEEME

T3: PARD3B_1, Q8TEW8
T3 sequence (Q8TEW8 196-299, limits assumed, looked up): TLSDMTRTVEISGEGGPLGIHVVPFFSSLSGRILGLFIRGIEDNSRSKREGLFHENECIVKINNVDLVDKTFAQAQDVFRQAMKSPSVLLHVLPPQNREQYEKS

T4: LIN7C, Q9NUP9
T4 sequence (Q9NUP9 88-185, limits assumed, looked up): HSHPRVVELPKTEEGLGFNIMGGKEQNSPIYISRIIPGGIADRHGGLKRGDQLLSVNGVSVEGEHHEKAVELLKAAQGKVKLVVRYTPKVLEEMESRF

T5: GRIP1_5, Q9Y3R0
T5 sequence (Q9Y3R0 568-668, limits assumed, looked up): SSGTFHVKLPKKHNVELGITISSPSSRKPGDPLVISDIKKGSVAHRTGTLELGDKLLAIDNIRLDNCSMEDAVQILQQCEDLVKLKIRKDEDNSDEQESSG

T6: APBA1_2, Q02410
T6 sequence (Q02410 742-832, limits assumed, looked up): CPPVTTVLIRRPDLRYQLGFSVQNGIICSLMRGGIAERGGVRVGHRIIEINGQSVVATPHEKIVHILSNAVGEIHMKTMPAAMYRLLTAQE

T7: DLG3_1, Q92796
T7 sequence (Q92796 125-227, limits assumed, looked up): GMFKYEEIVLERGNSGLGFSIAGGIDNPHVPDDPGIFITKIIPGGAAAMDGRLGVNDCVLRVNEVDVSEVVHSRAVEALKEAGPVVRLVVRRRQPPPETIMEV

T8: RADIL, Q96JH8
T8 sequence (Q96JH8 971-1071, limits assumed, looked up): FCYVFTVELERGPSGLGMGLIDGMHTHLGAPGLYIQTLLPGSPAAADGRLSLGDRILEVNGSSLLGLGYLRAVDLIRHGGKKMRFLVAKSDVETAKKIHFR

T9: SHANK1, Q9Y566
T9 sequence (Q9Y566 658-767, limits assumed, looked up): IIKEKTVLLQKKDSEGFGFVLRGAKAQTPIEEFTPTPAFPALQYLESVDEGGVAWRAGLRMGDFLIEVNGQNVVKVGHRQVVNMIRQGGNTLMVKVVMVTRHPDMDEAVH

T10: LIN7A, O14910
T10 sequence (O14910 103-200, limits assumed, looked up): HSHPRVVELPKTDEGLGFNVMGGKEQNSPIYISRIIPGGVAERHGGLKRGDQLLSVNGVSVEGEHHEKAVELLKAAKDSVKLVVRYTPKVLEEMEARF


Columns and labels:
Assay in all cases: holdup assay
Parameters in all cases: key: below the threshold = too weak to quantify, mostly under pKd 3.1 to 4
Details in all cases: plain residues with an end cap or a label only (N-terminal biotin on a linker: ado-ado)
MAGI1_1, Q96QZ7 = molecular target: MAGI1_1, Q96QZ7
Chain of MAGI1_1, Q96QZ7 (Q96QZ7 1-106): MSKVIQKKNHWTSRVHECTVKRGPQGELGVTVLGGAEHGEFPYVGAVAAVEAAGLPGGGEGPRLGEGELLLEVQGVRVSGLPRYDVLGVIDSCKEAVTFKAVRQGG

SYNJ2BP, P57105 = molecular target: T1, SYNJ2BP, P57105
PARD3_3, Q8TEW0 = molecular target: PARD3_3, Q8TEW0
Chain of PARD3_3, Q8TEW0 (Q8TEW0 582-685): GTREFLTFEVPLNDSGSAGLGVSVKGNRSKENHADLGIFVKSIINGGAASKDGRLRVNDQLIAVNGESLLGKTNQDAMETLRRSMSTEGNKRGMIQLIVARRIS

TJP3_3, O95049 = molecular target: T2, TJP3_3, O95049
DLG2_2, Q15700 = molecular target: DLG2_2, Q15700
Chain of DLG2_2, Q15700 (Q15700 189-283): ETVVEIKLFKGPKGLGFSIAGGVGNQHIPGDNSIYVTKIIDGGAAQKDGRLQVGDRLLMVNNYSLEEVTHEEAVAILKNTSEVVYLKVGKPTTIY

PTPN3, P26045 = molecular target: PTPN3, P26045
Chain of PTPN3, P26045 (P26045 505-587): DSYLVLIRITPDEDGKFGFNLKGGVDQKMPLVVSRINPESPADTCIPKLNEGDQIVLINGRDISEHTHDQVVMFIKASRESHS

Inadl_2, Q8NI35 = molecular target: Inadl_2, Q8NI35
Chain of Inadl_2, Q8NI35 (Q8NI35 238-335): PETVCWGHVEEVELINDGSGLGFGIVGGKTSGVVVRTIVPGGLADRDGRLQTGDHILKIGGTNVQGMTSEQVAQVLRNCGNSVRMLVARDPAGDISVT

Inadl_9, Q8NI35 = molecular target: Inadl_9, Q8NI35
Chain of Inadl_9, Q8NI35 (Q8NI35 1530-1615): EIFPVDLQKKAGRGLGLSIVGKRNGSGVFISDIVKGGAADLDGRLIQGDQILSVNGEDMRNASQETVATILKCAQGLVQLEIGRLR

PARD3B_1, Q8TEW8 = molecular target: T3, PARD3B_1, Q8TEW8
MAGI2_5, Q86UL8 = molecular target: MAGI2_5, Q86UL8
Chain of MAGI2_5, Q86UL8 (Q86UL8 915-1017): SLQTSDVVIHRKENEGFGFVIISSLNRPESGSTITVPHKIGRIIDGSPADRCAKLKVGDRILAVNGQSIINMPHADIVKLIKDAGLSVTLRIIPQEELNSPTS

LIN7C, Q9NUP9 = molecular target: T4, LIN7C, Q9NUP9
Inadl_1, Q8NI35 = molecular target: Inadl_1, Q8NI35
Chain of Inadl_1, Q8NI35 (Q8NI35 113-229): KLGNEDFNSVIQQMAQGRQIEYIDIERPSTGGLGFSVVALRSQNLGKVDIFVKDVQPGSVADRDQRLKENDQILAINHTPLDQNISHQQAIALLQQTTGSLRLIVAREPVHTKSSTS

DLG4_2, P78352 = molecular target: DLG4_2, P78352
Chain of DLG4_2, P78352 (P78352 155-259): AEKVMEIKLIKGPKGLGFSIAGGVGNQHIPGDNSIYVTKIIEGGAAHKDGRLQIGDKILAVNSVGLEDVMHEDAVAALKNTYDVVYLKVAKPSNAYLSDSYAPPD

GRIP1_5, Q9Y3R0 = molecular target: T5, GRIP1_5, Q9Y3R0
MAGI1_2, Q96QZ7 = molecular target: MAGI1_2, Q96QZ7
Chain of MAGI1_2, Q96QZ7 (Q96QZ7 456-580): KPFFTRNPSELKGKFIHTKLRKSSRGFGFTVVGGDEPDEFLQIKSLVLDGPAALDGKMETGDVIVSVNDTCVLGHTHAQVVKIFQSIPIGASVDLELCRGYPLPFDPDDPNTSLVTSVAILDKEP

APBA1_2, Q02410 = molecular target: T6, APBA1_2, Q02410
AHNAK1, Q09666 = molecular target: AHNAK1, Q09666
Chain of AHNAK1, Q09666 (Q09666 4-100): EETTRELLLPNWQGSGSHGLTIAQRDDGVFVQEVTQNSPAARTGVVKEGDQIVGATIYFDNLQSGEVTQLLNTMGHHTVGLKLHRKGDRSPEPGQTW

GORASP1, Q9BQQ3 = molecular target: GORASP1, Q9BQQ3
Chain of GORASP1, Q9BQQ3 (Q9BQQ3 1-208): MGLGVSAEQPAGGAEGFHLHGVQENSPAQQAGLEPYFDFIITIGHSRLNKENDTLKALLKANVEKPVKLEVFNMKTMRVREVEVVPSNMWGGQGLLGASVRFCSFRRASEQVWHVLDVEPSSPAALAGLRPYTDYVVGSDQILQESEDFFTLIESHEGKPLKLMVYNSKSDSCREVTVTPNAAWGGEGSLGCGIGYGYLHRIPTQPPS

DLG3_1, Q92796 = molecular target: T7, DLG3_1, Q92796
HTRA2, O43464 = molecular target: HTRA2, O43464
Chain of HTRA2, O43464 (O43464 355-458): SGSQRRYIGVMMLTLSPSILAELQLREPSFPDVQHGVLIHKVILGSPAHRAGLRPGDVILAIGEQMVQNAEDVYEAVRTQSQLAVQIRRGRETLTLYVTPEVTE

NHERF2_2, Q15599 = molecular target: NHERF2_2, Q15599
Chain of NHERF2_2, Q15599 (Q15599 142-238): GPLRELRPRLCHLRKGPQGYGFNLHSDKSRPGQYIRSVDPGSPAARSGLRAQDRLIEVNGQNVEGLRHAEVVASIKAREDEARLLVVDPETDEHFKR

RADIL, Q96JH8 = molecular target: T8, RADIL, Q96JH8
SHANK1, Q9Y566 = molecular target: T9, SHANK1, Q9Y566
LIN7A, O14910 = molecular target: T10, LIN7A, O14910
MAST1, Q9Y2H9 = molecular target: MAST1, Q9Y2H9
Chain of MAST1, Q9Y2H9 (Q9Y2H9 962-1065): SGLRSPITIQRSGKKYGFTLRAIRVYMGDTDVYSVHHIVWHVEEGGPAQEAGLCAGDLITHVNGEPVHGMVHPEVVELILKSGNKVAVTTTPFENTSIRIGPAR

DLG1_1, Q12959 = molecular target: DLG1_1, Q12959
GRIP2_3, Q9C0E4 = molecular target: GRIP2_3, Q9C0E4
Chain of GRIP2_3, Q9C0E4 (Q9C0E4 238-339): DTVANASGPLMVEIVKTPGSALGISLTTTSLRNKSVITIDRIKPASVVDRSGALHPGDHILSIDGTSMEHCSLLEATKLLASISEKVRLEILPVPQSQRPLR

Binder | pKd (MAGI1_1, Q96QZ7) | pKd (SYNJ2BP, P57105) | pKd (PARD3_3, Q8TEW0) | pKd (TJP3_3, O95049) | pKd (DLG2_2, Q15700) | pKd (PTPN3, P26045) | pKd (Inadl_2, Q8NI35) | pKd (Inadl_9, Q8NI35) | pKd (PARD3B_1, Q8TEW8) | pKd (MAGI2_5, Q86UL8) | pKd (LIN7C, Q9NUP9) | pKd (Inadl_1, Q8NI35) | pKd (DLG4_2, P78352) | pKd (GRIP1_5, Q9Y3R0) | pKd (MAGI1_2, Q96QZ7) | pKd (APBA1_2, Q02410) | pKd (AHNAK1, Q09666) | pKd (GORASP1, Q9BQQ3) | pKd (DLG3_1, Q92796) | pKd (HTRA2, O43464) | further results
ARESQKVSHV [FAM110B, Q8TC76] | below the threshold | 4.31 | below the threshold | below the threshold | 4.24 | 4.51 | below the threshold | 3.9 | below the threshold | 3.66 | below the threshold | below the threshold | 4.53 | below the threshold | 4.09 | 4.41 | below the threshold | 3.8 | below the threshold | below the threshold | pKd (NHERF2_2, Q15599): below the threshold; pKd (RADIL, Q96JH8): 4.55; pKd (SHANK1, Q9Y566): below the threshold; pKd (LIN7A, O14910): below the threshold; pKd (MAST1, Q9Y2H9): 4.13; pKd (DLG1_1, Q12959): 3.95; pKd (GRIP2_3, Q9C0E4): below the threshold
SPDRDRESIV [SCN5A, Q14524] | below the threshold | 4.47 | 3.86 | below the threshold | 4.58 | 4.78 | below the threshold | 3.54 | below the threshold | 4.12 | 4.12 | below the threshold | 4.73 | below the threshold | 3.51 | 3.55 | below the threshold | 3.71 | 3.9 | below the threshold | pKd (NHERF2_2, Q15599): below the threshold; pKd (RADIL, Q96JH8): 4.12; pKd (SHANK1, Q9Y566): below the threshold; pKd (LIN7A, O14910): below the threshold; pKd (MAST1, Q9Y2H9): 3.83; pKd (DLG1_1, Q12959): 4.28; pKd (GRIP2_3, Q9C0E4): below the threshold
LESTTVGTSV [KARS1, Q15046] | 3.5 | 5.44 | below the threshold | below the threshold | 4.06 | 4.82 | below the threshold | 3.67 | below the threshold | 4.06 | below the threshold | below the threshold | 4.35 | below the threshold | below the threshold | 4.69 | below the threshold | below the threshold | 3.98 | below the threshold | pKd (NHERF2_2, Q15599): below the threshold; pKd (RADIL, Q96JH8): below the threshold; pKd (SHANK1, Q9Y566): 3.71; pKd (LIN7A, O14910): below the threshold; pKd (MAST1, Q9Y2H9): 4.53; pKd (DLG1_1, Q12959): 4.27; pKd (GRIP2_3, Q9C0E4): below the threshold
TNSRHGETTV [FZD2, Q14332] | below the threshold | 5.08 | below the threshold | below the threshold | 4.81 | 4.61 | below the threshold | 3.74 | below the threshold | 3.6 | 4.6 | below the threshold | 4.92 | below the threshold | 4.2 | 3.71 | below the threshold | 3.88 | 4.33 | below the threshold | pKd (NHERF2_2, Q15599): below the threshold; pKd (RADIL, Q96JH8): 4; pKd (SHANK1, Q9Y566): below the threshold; pKd (LIN7A, O14910): 3.85; pKd (MAST1, Q9Y2H9): below the threshold; pKd (DLG1_1, Q12959): 4.76; pKd (GRIP2_3, Q9C0E4): below the threshold
STKRKLASAV [NCF1, P14598] | below the threshold | 4.85 | below the threshold | below the threshold | 4.16 | 3.95 | below the threshold | below the threshold | below the threshold | 3.99 | below the threshold | below the threshold | 4.51 | below the threshold | 5.08 | 3.88 | below the threshold | below the threshold | 3.49 | below the threshold | pKd (NHERF2_2, Q15599): below the threshold; pKd (RADIL, Q96JH8): below the threshold; pKd (SHANK1, Q9Y566): below the threshold; pKd (LIN7A, O14910): below the threshold; pKd (MAST1, Q9Y2H9): below the threshold; pKd (DLG1_1, Q12959): 3.68; pKd (GRIP2_3, Q9C0E4): below the threshold
ILRKSTTTTV [PRR16, Q569H4] | below the threshold | 4.2 | below the threshold | below the threshold | 5.17 | 3.92 | below the threshold | below the threshold | below the threshold | below the threshold | below the threshold | below the threshold | 5.2 | below the threshold | 4.76 | below the threshold | below the threshold | 4.19 | 4.26 | below the threshold | pKd (NHERF2_2, Q15599): below the threshold; pKd (RADIL, Q96JH8): 3.64; pKd (SHANK1, Q9Y566): below the threshold; pKd (LIN7A, O14910): below the threshold; pKd (MAST1, Q9Y2H9): 4.29; pKd (DLG1_1, Q12959): 4.76; pKd (GRIP2_3, Q9C0E4): below the threshold

Reference: paper PMC9482650, “Quantitative fragmentomics allow affinity mapping of interactomes” (Nature Communications, 2022)
